From article PMC2646141

B1: wild type APOBEC3G prey [human] / wild type APOBEC3G bait [human] (parent)
chain 1: MKPHFRNTVERMYRDTFSYNFYNRPILSRRNTVWLCYEVKTKGPSRPPLDAKIFRGQVYSELKYHPEMRFFHWFSKWRKLHRDQEYEVTWYISWSPCTKCTRDMATFLAEDPKVTLTIFVARLYYFWDPDYQEALRSLCQKRDGPRATMKIMNYDEFQHCWSKFVYSQRELFEPWNNLPKYYILLHIMLGEILRHSMDPPTFTFNFNNEPWVRGRHETYLCYEVERMHNDTWVLLNQRRGFLCNQAPHKHGFLEGRHAELCFLDVIPFWKLDLDQDYRVTCFTSWSPCFSCAQEMAKFISKNKHVSLCIFTARIYDDQGRCQEGLRTLAEAGAKISIMTYSEFKHCWDTFVDHQGCPFQPWDGLDEHSQDLSGRLRAILQNQEN
chain 2: B1 chain 1

Variants of: B1
Test: yeast two-hybrid (β-galactosidase activity)
Settings: with wild type APOBEC3G (A3G) bait [human]; parent: 0.5; read off a plot

response | Variant
0.031 OD540 | chain 1 W127Y
0.038 OD540 | chain 1 W127A
0.34 OD540 | chain 1 Y315F
0.59 OD540 | chain 1 Y315A
0.5 OD540 | chain 1 Y315L
0.062 OD540 | chain 1 Y124A
0.042 OD540 | chain 1 Y124L
0.05 OD540 | chain 1 Y124F
